Reference: paper PMC5709738 (The EMBO Journal, 2017)

Key:
[1] = biological target: COMA-MIND (K. lactis COMA bound with MIND-C1) (Kluyveromyces lactis) (UniProt Q6CUE5); assay: native MS; nanoflow electrospray of intact assemblies in 200 mM ammonium acetate pH 6.7-7.3 or 7.4; higher micromolar concentrations (COMA ~3 or ~6 uM; COMA-Nkp1-Nkp2 ~3 uM)
[2] = biological target: COMA (K. lactis, full length: Ame1, Ctf19, Mcm21, Okp1) (Kluyveromyces lactis) (UniProt Q6CUE5); assay: SEC-MALS; COMA injected at ~43 uM (COMA dimer) on Superdex 200 10/300; max. dimeric COMA concentration in the principal peak 2.4 uM
[3] = biological target: COMA (K. lactis, full length: Ame1, Ctf19, Mcm21, Okp1) (Kluyveromyces lactis) (UniProt Q6CUE5); assay: native MS; nanoflow electrospray of intact assemblies in 200 mM ammonium acetate pH 6.7-7.3 or 7.4; higher micromolar concentrations (COMA ~3 or ~6 uM; COMA-Nkp1-Nkp2 ~3 uM)
S. cerevisiae clones = assay: dilution-series growth assay on solid YPD agar with benomyl; type: cell-based; conditions: 20 μg/ml benomyl
Text: For vegetative growth assays on solid agar, we serially diluted our mitotically cycling S. cerevisiae clone suspensions to an absorbance at 600 nm (A600) of 0.4, in 96‐well plates (Nunc; Thermo Fisher Scientific). From this suspension, we sequentially fourfold diluted suspensions with minimal synthetic complete medium row‐wise (Fig 8A and C; Appendix Fig S9A, B and E). We spotted S. cerevisiae suspensions with a sterilized 48‐head metal pinner (V & P Scientific, Inc.). We prepared our solid YPD agar that contained benomyl with a final concentration of 20 μg/ml benomyl (Sigma‐Aldrich). We did our growth experiments with S. cerevisiae clones that encode Mad1 fused to an auxin‐inducible degron (Appendix Fig S9E) on solid yeast‐extract peptone (YEP) agar with 2% (w/v) raffinose and 2% (w/v) galactose, and 1 mM of the synthetic auxin analogue 1‐napthylic acetic acid (NAA; Carl Roth), similarly as described (Nishimura et al, 2009). To prepare S. cerevisiae extracts for our Western blot that we show an image in Appendix Fig S9F, we grew cultures in YEP with 2% (w/v) raffinose and 2% (w/v) galactose to an A600 of 0.3. After the addition of NAA to a concentration of 1 mM, we collected cells from cultures after specific time points (Appendix Fig S9F) by centrifugation.

[4] = biological target: T1, full-length Ctf19-Mcm21 (K. lactis) (Kluyveromyces lactis, UniProt Q6CRN7 1-270; Q6CVQ9 1-293); assay: MST
T1 chain 1: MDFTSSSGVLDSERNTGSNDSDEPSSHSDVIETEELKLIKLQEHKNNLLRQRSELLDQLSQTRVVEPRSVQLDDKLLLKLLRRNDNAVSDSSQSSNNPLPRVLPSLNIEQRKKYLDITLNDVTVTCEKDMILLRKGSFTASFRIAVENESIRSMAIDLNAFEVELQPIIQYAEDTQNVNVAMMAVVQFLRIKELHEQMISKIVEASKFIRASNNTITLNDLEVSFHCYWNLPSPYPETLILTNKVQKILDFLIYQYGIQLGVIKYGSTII
T1 chain 2: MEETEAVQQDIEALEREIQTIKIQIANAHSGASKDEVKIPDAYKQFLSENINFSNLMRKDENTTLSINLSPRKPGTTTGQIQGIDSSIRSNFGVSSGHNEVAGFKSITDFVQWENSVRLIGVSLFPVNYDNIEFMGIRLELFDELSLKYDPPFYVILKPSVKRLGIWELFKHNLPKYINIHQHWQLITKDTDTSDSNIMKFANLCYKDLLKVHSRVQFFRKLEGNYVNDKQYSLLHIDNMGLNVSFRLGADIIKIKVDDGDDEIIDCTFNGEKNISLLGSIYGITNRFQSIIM

## COMA-MIND (K. lactis COMA bound with MIND-C1) (from UniProt Q6CUE5 1-292; Q6CRN7 1-270; Q6CVQ9 1-293; Q6CJY0 1-383) (complex)
[1]
  stoichiometry N: 2

## COMA (K. lactis, full length: Ame1, Ctf19, Mcm21, Okp1) (from UniProt Q6CUE5 1-292; Q6CRN7 1-270; Q6CVQ9 1-293; Q6CJY0 1-383) (complex)
[2]
  stoichiometry N: 2
[3]
  stoichiometry N: 2

## CCCCNC(=O)n1c(NC(=O)OC)nc2ccccc21 [benomyl]
S. cerevisiae clones; Okp1_cmΔ and Okp1_cmΔnnΔ mutants, solid YPD agar, elevated temperature
  benomyl sensitivity (growth): sensitive to benomyl
S. cerevisiae clones; Okp1_cmΔ cnn1Δ mutant compared with Okp1_cmΔ or cnn1Δ, 37°C
  growth in the presence of benomyl: reduced growth

## SNEIYQQDKIDANLKLKTDF (synthetic peptide; terminal chemistry not stated) [F329A]
[4]
  Kd: 25.3 µM
